Experiment: yeast display, Sf9 membrane polyspecificity reagent, FACS + sequencing; frameworks hold sequencing errors
In short: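 In a synthetic yeast display library (Saccharomyces cerevisiae BJ5465), nanobody expression was induced with galactose for 36–48 hours. FACS gates were set low and high (top ~1%) using anti-HA fluorescence for expression and streptavidin fluorescence for binding of the Sf9 membrane reagent. Each polyreactivity label is drawn from the gate of origin.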

Sequence	polyreactivity (PSR sort gate)
QDQLVESGGGLVQAGGSLRISCAASGSIFAWYAMAWYRESPGKERELVATITWSGGSTYYADSVKGRFTISRDNAKNTVYLQMNSLKPEDTAVYYCAAEVVGIWYDLWYQGDYWGQGTQVTVSS	low polyreactivity
QDQLVESGGGLVQAGGSLRISCAASGSTFIYNAMGWYRQAPGKERELVATITGRGSTYYAYSVKGRFTISRDNAKNTVYLQLNSLKPEDTAVYYCAATIFNSFYWRYGYWGQGSQVTVSS	low polyreactivity
QDQLVESGGGLVQAGGSLRITCAASGSIFSWYTMGRYRQAPGKEMELVAAISGCGSRTYYADSVKGRFTISRDIEKNTVYLQMNSLKPEDTALYYCNTVNTWSVYYAYDYWGQGTQVTVSS	high polyreactivity
QDQLVESGGGLVQAGGSLRLICAASGLIFGFNTMACYRQAPGKESEFVAAINGSDGSTYADSVKGRFTISRDNAKNTVYLQMNSLKPEDTAVYYCAARYGSPKEYTYADMDYWGQGTQVTVSS	low polyreactivity
QDQLVESGGGLVQAGGSLRLICAASGRTFGSYTMGWYRQAPGKERELVAAITSGGRTNYADSVKGRFTISRDNAKNTVYLQMNSLKPEDTAVYYCAAGWRGGRYRYFAYDYWGQGTQVTVSS	high polyreactivity
QDQLVESGGGLVQAGGSLRLICAASGSIFTFYDMGWYRQAAGNERELVAAISSGGSTTYADSVKGRFTISRDNAKNTVYLQMNSLKPEDTAFYYCAADSQPYLYPVEYDYWRQGTQVTVSS	low polyreactivity
QDQLVESGGGLVQAGGSLRLICAASGSNFGYYGMGWYRQAPGKEREFVAAITFSGGSTYYADSVKGRFTISRDNAKNTVYLQMNSLKPEDTAVYYFAAVYYGPYTYRHKMYYWGQGTQVTVSS	low polyreactivity
QDQLVESGGGLVQAGGSLRLSCAASAFTFGRNAKGWYRQATGKERELVATITWSGGSTYYADSVKGRFTISRDNAKNTVYLQMNSLKPEDTAVYYCAKQRRYWGQPSRAYEFNYWGQGTQVTVSS	high polyreactivity
QDQLVESGGGLVQAGGSLRLSCAASAIIFYYYAMGSYRQAPGKERELVAAISSSGGRTRYADSVKGRVTISRDNAKNTVYLLMNRLKPEDTAVYYCAAEFIRGYGESYDYWGQGTQVTVSS	low polyreactivity
QDQLVESGGGLVQAGGSLRLSCAASALTFVRYAMGWYRQAPGKERELVAAISSGGSTNYADSVKGSFTISRDNAKNTVYLQMNSLKPEDSAVYYCAAVRYRYPHTMYYWGLGTQVTVSS	high polyreactivity
QDQLVESGGGLVQAGGSLRLSCAASCFTSLIYAMGWYRQAPGKERELVASITWGGGSTYADSVKGRFTISRDNAKNTVSLLMNSLKPEDTAVYYCASLYWWYPFNYWGQGTQVTVSS	low polyreactivity
QDQLVESGGGLVQAGGSLRLSCAASGFIFNKNAMGWYRQAPGKERELVAAITFGGGTTYYADSVKGRFTISRDNAKNTVYLQMNSLKPEDTAVYYCAKRYWRHPVFYLYDYWGQGTQVTVSS	high polyreactivity
QDQLVESGGGLVQAGGSLRLSCAASGFIFRFNARGWYRQAPGKEREVVAVIRWSSGSTYYADSVKGRFTISRDNAKNTVYLQMNSLKPEDTAVYYCAAVDDDYSIVWYYYWGQGTQVTVSS	low polyreactivity
QDQLVESGGGLVQAGGSLRLSCAASGFIFYDNAMGWYRQAPGKERELVAAISAIGGSTYYADSVKGRFTISRDNAKNTVYLQMNSLKPEDTAVYYCAVPEILDPKYQNDYWGQGTQVTVSS	low polyreactivity
QDQLVESGGGLVQAGGSLRLSCAASGFMFSYYAMGWYRQAPGKARELVAAMTSNGGITYYADSVKGRITISRDKAKNTVYLQMNSLKPEDTAVYYCNAYYTSTSYDYWGQGTQVTVSS	high polyreactivity
QDQLVESGGGLVQAGGSLRLSCAASGFNFRYYAMGWYRQAPGKERELVAAISSGGRTSYADSVKGRFTISRDNAKNTVYLQMNSLKPEDTAVYYCAADRWRGLFYYGNDYWGQGTQVTVSS	high polyreactivity
QDQLVESGGGLVQAGGSLRLSCAASGFTFQYYAMGWYRQAPGKERELVAAISRRGGRTDYADSVKGRFTISRDNAKNTVYLQINSLKPEDTEVYYCARDPGAFEYSGQGTQVTVSS	high polyreactivity
QDQLVESGGGLVQAGGSLRLSCAASGFTFRSNAMGWYRQAPGKERELVAAISRTGGSTYYADSVKGRFTISRDNAKNTVYLQMNSLKPEETAVYYCNTVYGKSHYGQAMDSWGQGTQVTVSS	high polyreactivity
QDQLVESGGGLVQAGGSLRLSCAASGFTFSYYTMGWYRHAPGKERELVAAISSTGVSTYYADSVKGRFTISRDNAKNTVYLQMNSLKPEDTAVYYCAADYYGVYEYYYWGQGTQVTVSS	high polyreactivity
QDQLVESGGGLVQAGGSLRLSCAASGFTFYRNAMGWYRQAPGKERELVAAISRGGRTYYADSVKGRFTISRDNAKNTVYLQMNSLNPEDTAVYYCAVGYSGYVSSMDYWGQGTQVTVSS	high polyreactivity
QDQLVESGGGLVQAGGSLRLSCAASGGIIVSYAMGWYRQAPGKEMQLVAAITSGGGTSYSDSVKGRFTISRDNAKNTVYLQMNSLKPEDTAVYYCNADGYLAERFVIRLDEYRHYDYWGQGTQVTVSS	low polyreactivity
QDQLVESGGGLVQAGGSLRLSCAASGIIFDDNTLGWYRQAPGKERELVAAISSSGGSTYYADSVKGRFSISRDNAKNTVYLQMNSLKPEDTAVYYCAAAVYYTYPYIVYRNYPEFDYWGQGTQVTVSS	low polyreactivity

Sequence	polyreactivity (PSR sort gate)
QDQLVESGGGLVQAGGSLRLSCAASGIIFSIYAMGWYRQAPGKERELVAVISRSSGSTYYADSVKGRFTISRDNAKNSVYLQMNSLKPEDTAVYYCAARKNRAYGYWGQGTQVTVSS	high polyreactivity
QDQLVESGGGLVQAGGSLRLSCAASGIISYKNVMGWYRQAPGKERELDAAITSGGSTNYADSVKGRFTISRDNAKNTVYLQMNSLKPEDTAVYYCAARYYGSYGKQPRARYGYWGQGTQVTVSS	high polyreactivity
QDQLVESGGGLVQAGGSLRLSCAASGITFAGNAMGWYRQAPGKERELVAAISGSGGSTSYADSVKGRFTISRDNAKNTVYLQMNSLKPEDTAVYYCAAASRLYNWHALFGSWGQGTQVTVSS	low polyreactivity
QDQLVESGGGLVQAGGSLRLSCAASGITFFYYAMGWYRQAPGKERELVAAINWSGRTYYADSVKGRFTISRDNAKNTVYLQINSLKPEDTAVYYCAAVTYGPGVSVMDYWGQGTQVTVSS	low polyreactivity
QDQLVESGGGLVQAGGSLRLSCAASGITFNAYVMGWYRQAPGKERELVAAISVSDDYTYYADSVKGRFTISRDNAKNTVYLQINSLKPEDTAVYYCAAEWWDVIAPYDYWGQGTQVTVSS	low polyreactivity
QDQLVESGGGLVQAGGSLRLSCAASGITFWYYAMGWYRQAPGKERELVAAISQSGGSTFYADSVKGRFTISRDNAKNTVYLQMNRLKPEVTAVYYCATGFFRYLAKFKTYRYDYWGQGTQVTVSS	high polyreactivity
QDQLVESGGGLVQAGGSLRLSCAASGITIWRYAMGWYRQAPGKERELVAAISWSGSRTYYADSVKGRFTISRDNAKNTVYLQMNSLKPEDTAVYYCAAAFDLWITITGFDYWGQGTQVTVSS	low polyreactivity
QDQLVESGGGLVQAGGSLRLSCAASGLIFARYAMGWYIQAPGKERELVAVISGRGGGTYYADSVKGRFTISRDNAKNTVYLQMNSLKPEDTAVYYCNKYGYKGGVGYDYWGQGTQVTVSS	high polyreactivity
QDQLVESGGGLVQAGGSLRLSCAASGLNFRFYAMGWYRTATGKERELVAAISSRGGSTYYAHSVKGRFTISRDNSKNTFYLQMISLKPEDTWVYYCAADYGDEYEYCGQGTQVTVSS	high polyreactivity
QDQLVESGGGLVQAGGSLRLSCAASGLTFDWYTMGWYRQAPGKERELVATINSGGSTDYADSVKGRFTISRDNAKNTVYLQMNSLKPEDTAVYYCNAEYGYSGVGDDYWGQGTQVTVSS	low polyreactivity
QDQLVESGGGLVQAGGSLRLSCAASGLTFKYYTMGWYRQAAGKERELVAYISRTGRTSYADSVKGRFTISRDNAKNTVYLQMNSLNPEDTGVYYCNADFYVSGYSLFDSIYDYWGQGTQVTVSS	high polyreactivity
QDQLVESGGGLVQAGGSLRLSCAASGLTFQSYAMGWYRQAPGKERELVATISNGSSTYYADSVKGRFTISRDNAKNTVYLQMNSLKPEDTAVYYFAKDYYYSRNPLYGLDYWGQGTQVTVSS	low polyreactivity
QDQLVESGGGLVQAGGSLRLSCAASGLTFQYNTMGWYRQAPGKERELVARINWGGDSTYYADSVKGRFTISRDNAKNTVYLQLYSLKPEVTAVYYCAAPGYSGRYGYYTYYLYVYWGQGTQVTVSS	low polyreactivity
QDQLVESGGGLVQAGGSLRLSCAASGLTYRLNAMGWYRQAPGKEREFVAAISAIGDRTYYADSVKGRFTISRDNAKNTVYLQMNSLKPEDTSVYYCNVTPRSAQVRIGNYWGQGTQVTVSS	high polyreactivity
QDQLVESGGGLVQAGGSLRLSCAASGNNYWTNAMGWYRQAPGKERELVAAISWSGDSTYYADSVKGRFTISRDNAKNTVYLQLNSLKPEDTAVYYCAVLDVYRYRMDYWGQGTQVTVSS	low polyreactivity
QDQLVESGGGLVQAGGSLRLSCAASGNTFTVNAMGWYRQAPGKERELVATINSTGGSTYYADSVKGRFTISRDNAKNTVYLQMNSLKPEDPAVYYAGSSNSFAFGGYDYWGQGTQVTVSS	low polyreactivity
QDQLVESGGGLVQAGGSLRLSCAASGPIFYSNAMGWYRQAPGKERELVAAISSGDGITYYADSVKGRFTISRDNAKNTVYLQMNSLKPEDTAVYYCAADGYYDYPYSGDYWGQGTQVTVSS	high polyreactivity
QDQLVESGGGLVQAGGSLRLSCAASGRIFAGYAMGWYRQAPGKERELVASIRSSGSTYYADSVKGRFTISRDNAKNTVYLQMNSLKPEDTAVYYCAARSGYFRSRFDYWGQCTQVTVSS	high polyreactivity
QDQLVESGGGLVQAGGSLRLSCAASGRIFFTNAMGWYRQAPGKERELVASIDDTGSTNYADSVKGRFTISRDNAKNTVYLQMNSLKPEDTATSTQGDYWGQGTQVTVSS	low polyreactivity
QDQLVESGGGLVQAGGSLRLSCAASGRIFKSYAMGWYRQAPGKERELVAAIGSRTYYADSVKGRFTISRDNAKNTVYLQMNSLKPEDTAVYYCAVEVWGNSKRYYYWGQGTQVTVSS	high polyreactivity
QDQLVESGGGLVQAGGSLRLSCAASGRIFPYYAMGWYRQAPGTERELVAAINSGGSTYYADSVKGRFPISRDNAKNTVYLQMNSLKPEDTAVNYCNADVLYEDGFFWDDYWGQGTQVTVSS	low polyreactivity
